Assay results: US20250154272A1

Target: human CD137-His tag protein (R&D Systems, 9220-4B) (human) (UniProt Q07011)
Test: ELISA, human CD137-His tag protein immobilized on the plate, anti-human IgG Fc-HRP, A450-A570

B1: ctrl IgG_L-3-34-j6 (antibody, part only; not given: isotype control IgG chains and linker, not shown: another chain or arm of the molecule; small tags and cut ends)
scFv: EVQLLESGGGLVQPGESLRLSCKAFGYTFTNHHINWVRQAPGKCLEWVGYINPYNDYTTFNDKFKDRFTLSVDKSKSTAYLQMNSLRAEDTAVYYCARTWGHWYFDLWGQGTLVTVSSGGGGSGGGGSGGGGSNIQMTQSPSSLSASVGDRVTITCRASQSVSSNLAWYQQKPGKAPKLLIYDSSTRATGVPSRFSGSGSGTDFTLTISSLQPEDFATYYCQQYNNWPPWTFGCGTKLEIKR
An EC50 (read off the curve) of 4 ng/mL was found for B1 in this work.
